We go through one molecule from patent US20250262210A1 (TRUSTEES OF COLUMBIA UNIVERSITY IN THE CITY OF NEW YORK, published 2025).

One assay addresses DMXL2 (human, UniProt Q8TDJ6 1-3036, limits assumed). The experiment in a line: IP/MS, LZTR1 R810W-FLAG, U87. A digest of the protocol:
(§1)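 Extracted peptides in 3% acetonitrile/0.1% formic acid ran on a 50 cm C18 column into an Orbitrap Fusion, with MaxQuant identification and spectral counting.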

The target in another assay is T1, HECTD3 (human, UniProt Q5T447 2-861, limits assumed).
T1 sequence (looked up): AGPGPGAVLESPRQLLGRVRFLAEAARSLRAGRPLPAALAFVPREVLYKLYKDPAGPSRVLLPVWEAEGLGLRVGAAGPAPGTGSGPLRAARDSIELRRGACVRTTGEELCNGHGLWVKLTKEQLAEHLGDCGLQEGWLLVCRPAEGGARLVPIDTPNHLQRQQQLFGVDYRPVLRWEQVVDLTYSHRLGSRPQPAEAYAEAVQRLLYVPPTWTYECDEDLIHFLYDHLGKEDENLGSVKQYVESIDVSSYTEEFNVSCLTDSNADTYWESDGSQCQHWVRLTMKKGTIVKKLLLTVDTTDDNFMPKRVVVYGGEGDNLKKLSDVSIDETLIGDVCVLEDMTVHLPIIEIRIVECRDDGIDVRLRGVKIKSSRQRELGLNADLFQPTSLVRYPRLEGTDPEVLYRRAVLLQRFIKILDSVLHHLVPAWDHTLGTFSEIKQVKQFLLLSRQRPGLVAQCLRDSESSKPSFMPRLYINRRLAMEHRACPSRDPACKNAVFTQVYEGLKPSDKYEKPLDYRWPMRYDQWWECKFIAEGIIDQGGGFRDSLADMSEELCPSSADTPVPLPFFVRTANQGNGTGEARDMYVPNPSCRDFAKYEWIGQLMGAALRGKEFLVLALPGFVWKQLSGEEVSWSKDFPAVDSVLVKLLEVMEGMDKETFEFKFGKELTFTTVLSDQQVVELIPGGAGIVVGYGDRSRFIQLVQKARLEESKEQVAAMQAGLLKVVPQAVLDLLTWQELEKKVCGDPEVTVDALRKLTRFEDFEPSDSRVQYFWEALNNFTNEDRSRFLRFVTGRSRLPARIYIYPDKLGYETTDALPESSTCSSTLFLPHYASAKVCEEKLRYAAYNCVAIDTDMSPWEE
The assay can be described thus: IP/MS, LZTR1 R810W-FLAG, U87. A digest of the protocol: as §1

Chain of DMXL2 (Q8TDJ6 whole entry, the tested form may be a part): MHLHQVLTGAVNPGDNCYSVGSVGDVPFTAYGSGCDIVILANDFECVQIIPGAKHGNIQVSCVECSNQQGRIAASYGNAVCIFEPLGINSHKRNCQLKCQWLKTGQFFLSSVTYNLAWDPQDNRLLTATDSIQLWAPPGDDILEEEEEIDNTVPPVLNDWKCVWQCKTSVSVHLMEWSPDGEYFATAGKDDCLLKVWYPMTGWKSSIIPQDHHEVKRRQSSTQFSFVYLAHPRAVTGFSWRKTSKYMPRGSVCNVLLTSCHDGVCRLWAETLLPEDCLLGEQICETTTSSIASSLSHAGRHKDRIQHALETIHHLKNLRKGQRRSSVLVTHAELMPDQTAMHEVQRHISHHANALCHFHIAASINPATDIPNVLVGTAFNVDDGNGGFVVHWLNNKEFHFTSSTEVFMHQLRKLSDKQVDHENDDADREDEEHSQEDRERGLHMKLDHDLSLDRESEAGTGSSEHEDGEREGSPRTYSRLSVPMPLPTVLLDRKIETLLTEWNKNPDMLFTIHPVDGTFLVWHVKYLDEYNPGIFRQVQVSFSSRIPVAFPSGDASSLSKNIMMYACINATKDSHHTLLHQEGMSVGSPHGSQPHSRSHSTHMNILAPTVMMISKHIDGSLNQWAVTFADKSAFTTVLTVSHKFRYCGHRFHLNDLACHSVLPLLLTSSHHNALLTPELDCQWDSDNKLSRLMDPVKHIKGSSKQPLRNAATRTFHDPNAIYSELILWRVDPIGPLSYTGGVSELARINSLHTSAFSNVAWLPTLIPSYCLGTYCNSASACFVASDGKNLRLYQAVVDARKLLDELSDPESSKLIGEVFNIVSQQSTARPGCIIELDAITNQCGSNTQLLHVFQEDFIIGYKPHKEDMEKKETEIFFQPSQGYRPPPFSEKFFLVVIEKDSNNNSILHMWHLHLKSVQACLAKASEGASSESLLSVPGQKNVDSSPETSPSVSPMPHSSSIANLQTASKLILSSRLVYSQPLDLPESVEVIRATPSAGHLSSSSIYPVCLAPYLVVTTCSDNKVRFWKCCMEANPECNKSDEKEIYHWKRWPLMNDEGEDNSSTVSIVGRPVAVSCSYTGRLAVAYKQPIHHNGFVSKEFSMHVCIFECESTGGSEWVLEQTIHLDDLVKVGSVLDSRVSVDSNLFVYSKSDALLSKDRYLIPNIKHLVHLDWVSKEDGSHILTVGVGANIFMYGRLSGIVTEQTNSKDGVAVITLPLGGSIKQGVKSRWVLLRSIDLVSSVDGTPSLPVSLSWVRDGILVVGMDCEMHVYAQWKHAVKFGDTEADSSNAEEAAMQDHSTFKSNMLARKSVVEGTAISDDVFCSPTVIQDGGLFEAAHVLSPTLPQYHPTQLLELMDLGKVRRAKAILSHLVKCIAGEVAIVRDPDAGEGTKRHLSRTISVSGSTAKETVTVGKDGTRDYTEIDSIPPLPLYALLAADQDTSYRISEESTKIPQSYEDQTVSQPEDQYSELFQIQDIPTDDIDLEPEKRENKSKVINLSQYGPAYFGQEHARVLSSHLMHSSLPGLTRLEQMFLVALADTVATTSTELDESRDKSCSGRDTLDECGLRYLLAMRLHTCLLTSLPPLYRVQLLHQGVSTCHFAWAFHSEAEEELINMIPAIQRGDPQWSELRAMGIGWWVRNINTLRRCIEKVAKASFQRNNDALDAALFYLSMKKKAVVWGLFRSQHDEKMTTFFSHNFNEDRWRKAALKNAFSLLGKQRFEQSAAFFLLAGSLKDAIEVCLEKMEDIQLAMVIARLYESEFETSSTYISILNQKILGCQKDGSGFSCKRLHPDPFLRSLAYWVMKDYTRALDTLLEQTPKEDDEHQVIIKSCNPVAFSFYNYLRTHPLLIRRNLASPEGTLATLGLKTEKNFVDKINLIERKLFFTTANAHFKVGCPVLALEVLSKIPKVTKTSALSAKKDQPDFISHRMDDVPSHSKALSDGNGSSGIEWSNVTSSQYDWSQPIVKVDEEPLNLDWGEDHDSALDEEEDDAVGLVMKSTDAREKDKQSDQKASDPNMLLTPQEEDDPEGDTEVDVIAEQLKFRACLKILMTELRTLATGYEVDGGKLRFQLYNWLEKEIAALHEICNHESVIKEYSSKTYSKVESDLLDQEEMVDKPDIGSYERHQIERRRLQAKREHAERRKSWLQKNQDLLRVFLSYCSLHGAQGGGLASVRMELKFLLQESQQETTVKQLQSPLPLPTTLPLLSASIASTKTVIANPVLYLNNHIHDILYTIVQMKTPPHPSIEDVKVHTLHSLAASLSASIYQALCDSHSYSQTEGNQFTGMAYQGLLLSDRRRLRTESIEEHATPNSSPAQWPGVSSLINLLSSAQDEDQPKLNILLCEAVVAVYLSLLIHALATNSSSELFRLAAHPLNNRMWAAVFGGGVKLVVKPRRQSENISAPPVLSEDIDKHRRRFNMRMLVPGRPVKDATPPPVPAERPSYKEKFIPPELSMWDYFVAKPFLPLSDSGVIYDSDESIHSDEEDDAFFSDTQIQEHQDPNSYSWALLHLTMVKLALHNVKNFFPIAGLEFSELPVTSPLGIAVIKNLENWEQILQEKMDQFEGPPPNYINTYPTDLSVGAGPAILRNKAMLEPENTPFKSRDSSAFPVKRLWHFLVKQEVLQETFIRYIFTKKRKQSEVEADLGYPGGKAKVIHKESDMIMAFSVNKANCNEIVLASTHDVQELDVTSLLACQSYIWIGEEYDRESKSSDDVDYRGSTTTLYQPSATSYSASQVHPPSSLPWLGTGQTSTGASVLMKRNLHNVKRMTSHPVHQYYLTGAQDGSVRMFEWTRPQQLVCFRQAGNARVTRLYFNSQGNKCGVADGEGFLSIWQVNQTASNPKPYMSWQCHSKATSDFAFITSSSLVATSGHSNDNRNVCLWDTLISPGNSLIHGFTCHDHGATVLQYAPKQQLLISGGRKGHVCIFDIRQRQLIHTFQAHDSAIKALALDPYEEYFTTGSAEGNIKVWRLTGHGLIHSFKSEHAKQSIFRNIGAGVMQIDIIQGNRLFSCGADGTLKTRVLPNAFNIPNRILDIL

B1: LZTR1 R810W-FLAG (other, human, UniProt Q8N653 1-840, looked up)
chain: MAGPGSTGGQIGAAALAGGARSKVAPSVDFDHSCSDSVEYLTLNFGPFETVHRWRRLPPCDEFVGARRSKHTVVAYKDAIYVFGGDNGKTMLNDLLRFDVKDCSWCRAFTTGTPPAPRYHHSAVVYGSSMFVFGGYTGDIYSNSNLKNKNDLFEYKFATGQWTEWKIEGRLPVARSAHGATVYSDKLWIFAGYDGNARLNDMWTIGLQDRELTCWEEVAQSGEIPPSCCNFPVAVCRDKMFVFSGQSGAKITNNLFQFEFKDKTWTRIPTEHLLRGSPPPPQRRYGHTMVAFDRHLYVFGGAADNTLPNELHCYDVDFQTWEVVQPSSDSEVGGAEVPERACASEEVPTLTYEERVGFKKSRDVFGLDFGTTSAKQPTQPASELPSGRLFHAAAVISDAMYIFGGTVDNNIRSGEMYRFQFSCYPKCTLHEDYGRLWESRQFCDVEFVLGEKEECVQGHVAIVTARSRWLRRKITQARERLAQKLEQEAAPVPREAPGVAAGGARPPLLHVAIREAEARPFEVLMQFLYTDKIKYPRKGHVEDVLLIMDVYKLALSFQLCRLEQLCRQYIEASVDLQNVLVVCESAARLQLSQLKEHCLNFVVKESHFNQVIMMKEFERLSSPLIVEIVRRKQQPPPRTPLDQPVDIGTSLIQDMKAYLEGAGAEFCDITLLLDGHPRPAHKAILAARSSYFEAMFRSFMPEDGQVNISIGEMVPSRQAFESMLRYIYYGEVNMPPEDSLYLFAAPYYYGFYNNRLQAYCKQNLEMNVTVQNVLQILEAADKTQALDMKRHCLHIIVHQFTKVSKLPTLWSLSQQLLLDIIDSLASHISDKQCAELGADI
notes: Stably expressed in U87 cells by lentivirus; also called LZTR1-FLAG-R810W; LZTR1 RW; not shown: FLAG tag
Regarding B1, the binding result with DMXL2 and with HECTD3 was “binds” throughout.
